Data taken from the DeepSol protein solubility set.

Test: soluble on expression in E. coli; label from the status in PepcDB or PDB records

Sequence: MEKYMSLLTRIEEMMQSTSYQEGDRLPSIRQLSARYQVSKSTVIRALQELEKRHLIYSVPKSGYYIVKKSGKSKSGQPGPIDFATSAPDPDVFPYLDFQHCINKAIDTYKNDLFIYGTPKGLPSLIRVLRKLLATQQVFADERHIFITSGVQQALSLLCAMPFPNGKEKIAIEQPGYHLMVEQLETLGIPAIGVKRTEEGLDIAKVERLFQTESIKFFYTMPRFHNPLGCSLSERDKQELVRLAEAYDVYLVEDDYLGDLEENKKADPLYAYDLSSHVIYLKSFSKMMFPGLRVGAAVLPEALTDTFYAYKKLNDIDCSMISQAALEIYLKSGMYGRHKEKIRDSYKERSLRLHQAIRTHRQLGSGRFTFSSGQAPCMHTHLVLPQDLPASRVIHRLEKQGVLLEAIDRHYLSDYPKENLLKINISNVKTEDIERGVKLLMSHL
- soluble on expression in E. coli: not soluble

Sequence: MSLKIAIVGCGAMGSVYAGLLASAGNSLWIVDRWKAHVEAINSRGLRLEGPQRDLTAFAHASTTAPDEPMDLVIIAVKASDVETGAQQTLSMIGPETIVLTIQNGLGSADAVAQVVGVDRLAVGIASGFGASLKGPGHAHHNAMQALRFGAYSSLPYERVVAVARVWESAGFDAKAIRDIAVMQWEKLICNVAYSAPCALTGMTVGEVMNDPCMGPVSQAAATEAWSVARALGIQIDVDDPVAHVRAFGARMPAAKPSALLDHEAGRISEIDVINGAVPTQGNKLGIATPVNSTLTQLVRVKERQFREGHHHHHH
- soluble on expression in E. coli: soluble

Sequence: GMTESDRDQEASMREVVIVKSTPQRGKFNAFAELVGKLVSETRDFPGCLGAYLMLAPERNEQVVMHIWETPDALEAYLTWRADRGDFLEINEYLEVEQDFKTYQLA
- soluble on expression in E. coli: soluble

Sequence: NGGVGVDVELITSINVENDTFIERNFTPQEIEYCSAQPSVQSSFAGTWSAKEAVFKSLGVKSLGGGAALKDIEIVRTNKNAPAVELHGNAKKAAEEAGVTDVKVSISHDDLQAVAVAVSTKK
- soluble on expression in E. coli: soluble

Sequence: MTPHPRLSIGLPVYNGEEYLAESLDALLGQTYENFELVISDNASTDGTRDICRRYAAQDSRIRYIRLPRNIGAAPNHNYVFTECRGELFKWASHDDLYARDLLRSCVAALDERPEVVLAHAGQAVIDGDGKVKVPYEYGLATDSPRAPERFRSLLFEPGGDDFYGVMRSAMLRRVKPHDSYHHADRTFVAEITLHGPFHQVPELLYFRRDHPTRAERANPSKRSRCVNLDPRRAGPLHPTPRLLAEYVWGFASAIGRAPLSSADRRACHRHLAAWLTSRVRPGVGERVEDRAPVDPDRLTVSVDDLVAGREGRQALEHHHHHH
- soluble on expression in E. coli: not soluble

Sequence: AMRQCAIYGKGGIGKSTTTQNLVAALAEMGKKVMIVGCDPKADSTRLILHSKAQNTIMEMAAEAGTVEDLELEDVLKAGYGGVKCVESGGPEPGVGCAGRGVITAINFLEEEGAYEDDLDFVFYDVLGDVVCGGFAMPIRENKAQEIYIVCSGEMMAMYAANNISKGIVKYANSGSVRLGGLICNSRNTDREDELIIALANKLGTQMIHFVPRDNVVQRAEIRRMTVIEYDPKAKQADEYRALARKVVDNKLLVIPNPITMDELEELLMEFGIMEVEDESIVGKTAEEV
- soluble on expression in E. coli: soluble

Sequence: MFLVDSHCHLDGLDYQSLHKDVDDVLAKAAARDVKFCLAVATTLPGYRHMRKLVGKRDNVVFSCGVHPLNQDEAYDVEELRLLAAEDDVVAMGETGLDYFYTPETKIRQQASFIHHIQIGRELHKPVIVHTRDARADTLAILREEKVTDCGGVLHCFTEDRETAGKLLDLGFYISFSGIVTFRNAEQLRDAARYVPLDRLLVETDSPYLAPVPHRGKENQPAMVRDVAEYMAVLKGVAVEELAQITTDNFARLFHIDASRLSSIR
- soluble on expression in E. coli: not soluble

Sequence: GPGSMERTPTARIRDVIDSQLALRSSGFLPGNSTPDQLLHLRAAVHRNAPQHRTAAYFVDHANAFGTVGPDAVILEMRRLSIPNRIARWSAACLNSTSAVVCIDKLTPSSRTLTRGAPQGTVLAPIMFVVVMQSRCSCPSNVPYFAEGSSLMTALSPHSRATGMRSTRPQKKA
- soluble on expression in E. coli: not soluble

Sequence: MDPAKVNTVDEDIKFKEVPGITNILLLSSDARPGEDVSRSDSIMILTIDNINKKLKVTSLMRDMLVKIDGHGEEKLNHAFAYGGPTKTIETIQNNFGIKLNNYVIVDFNAFVKVIDAINGIEVTVKDYELDELNKYILDGGGSEEDLLPSPGTYNLNGYQALSYARIRKVGNGEYERTERQRAVLQIALEKVKDMSTVKLVSLLNELFPYVKTNISLGNAMDYGFTALNVGKKCNFEIEQFRVPLDSISKGGIINNKGWVFVIDKVETSKALQEFIFNDNKNYEPDTSNFDSIIEQYFNDYDIKDDTTHPLEHHHHHH
- soluble on expression in E. coli: soluble

Sequence: MNKAIFLDRDGTLNIDYGYVHEIDNFKFIDGVIDALRELKKMGYMLVLVTNQSGIARGYFSEDQFLQLTEWMDWSLAEQDVDLDGIYYCPHHSEGKGEYKEDCDCRKPKSGMLLQAIKELKIDPTQSIMVGDKVEDLKAGIGAKVKMNVLVRTGKPVTGEGEGIADYVLDSIVDLPRILKRLKKLEHHHHHH
- soluble on expression in E. coli: not soluble

Sequence: MGSDKIHHHHHHMNGKLQSSDVKNETPYNIPLLINENVISSGISLISLWHTYADEHYRVIWPRDKKKPLIANSWVAVYTVQGCGKILLKNGEQITLHSNCIIFLKPMDIHSYHCEGLVWEQYWMEFTPTSMMDIPVGQQSVIYNGEIYNQELTEVAELITSPEAIKNNLAVAFLTKIIYQWICLMSADGKKDPQRRQIEKLIATLHASLQQRWSVADMAATIPCSEAWLRRLFLRYTGKTPKEYYLDARLDLALSLLKQQGNSVGEVADTLNFFDSFHFSKAFKHKFGYAPSAVLKNTDQHPTDASPHN
- soluble on expression in E. coli: not soluble

Sequence: MKFYTILSILFISFMLSACAVLQKSSPLQENKDFYILDTHTQKKISFEDMILELLKADVILLGEKHDEVKHKISQVMIFNALEGNLSSQNINFDVALEMLASTEQNHLDKAFKNKKTIKANELTNALNWDKVWKWKDYEQFVNVVFYSKSKILGANLSRSEITSIYNGAQPLKGYVSTTNEVKKQLFDIISLSHKLNPEENKELLDKLVEIQQFKDRRMADVLVHHVNKVLLLAGSYHTSKKIGIPLHIQDFKSSKKIVVVNLSYGEIDLKDSDYVLIYKGEE
- soluble on expression in E. coli: not soluble

Sequence: GDSFYIRTHFEYEKESPYGLSFNKGEVFRVVDTLYNGKLGSWLAIRIGKNHKEVERGIIPNKNRAEQLASVQYVQTKFPAYERVVLREAGFLRPVTIFGPIADVAREKLAREEPDIYQIAKSEPRDAGTDQRSSGIIRLHTIKQIIDQDKHALLDVTPNAVDRLNYAQWYPIVVFLNPDSKQGVKTMRMRLCPESRKSARKLYERSHKLRKNNHHLFTTTINLNSMNDGWYGALKEAIQQQQNQLVWVSEG
- soluble on expression in E. coli: soluble

Sequence: KTVINVVLQEDTQILDEVVVTALGLKREQKALGYAVTEVKGDDLKAANTISPVAALQGKVAGVEIRQSDGGMFGATKIQIRGASTLKGNNQPIYVIDGVILDNSTSGNTTMDWDAGNNNANDYGNELKNLNPDDFETVSVLKGAAATALYGSRGLNGAVVITTKSGKG
- soluble on expression in E. coli: not soluble

Sequence: MGEPFGGPLMGRLVSLLPSATDLIFELGLGEQLLGVSHCCDHPGAASLPVLTRSIIGSDLPQAEIDRAVSEAVRAGRALYTVDGPLLDRLRPDLVVTQGVCEVCAVTPGTVAEAVRFLPGCLPAEQVLSLEGKTFAGILADLRALARAAGVRERGEALAAESERRWNAIRPVGVQVPEPPRVLTLEWVDPPFYGGHWVPEQVAQAGGKDVLGHAGRDSGRTSWEDVVQLDPDVIVVMCCGYGLSDNAEFARQVLSHPELRAVRAGQVWGVDANAHFSRPSLGVVRGAEVLAALLRGEESAGESVRVRAELEHHHHHH
- soluble on expression in E. coli: not soluble

Sequence: LLYIDNIPLVEYNNIIQVEYVVINMLKHGILGLLNYGDMTGYEIMKVFRDSLSFFWTANTSQIYRELNTLKKDGFVTDIVVKQTGKPDKKVFSITESGREELKRWLREYDYGNRNSPLCMKVFFSGELPKEENIERLREIKNEAQQAIERYSSVFETMKIYKGMVARPEDSVYWNMTVEYGIRYMKMLSEWCDCCIKILEDVEK
- soluble on expression in E. coli: soluble

Sequence: MAHHHHHHMTALITKQRYNWMGYDGVESAVCDTALLRSDGGPANNYNYMHRQQVIMEVKERLYRIKRDLGLIPEEELRAEERAIQRRRMEKKRREEEERIRKEAEEAARAEEMERRHLELEEAEERASAEEVATQASAEHKHYMNDSDEDSDEENGIDDEQSASLVAMLRTQEEIDSAIAGFTKGTRMLLASSGNGYVSYLDGSVHFTIAKVESHNASNREKVMQALAGTNVAMPTAEEYSLEEVRQAMHDRDTARKKLDALRALQDPTYTARIRSAEKDTYGTPVQQLMEEDGDMSALVANCEDAKRFAESVRKAYNSRAAASAHALACALCTPPFTAEQESTSEAQAPAGKMANAEDGVSQPTGANSPSSSTSAQ
- soluble on expression in E. coli: not soluble

Sequence: MHKAILNSDLIATKAGDVTVYNYDGETREYISTSNEYLAVGVGIPACSCLDAPGTHKAGYAICRSADFNSWEYVPDHRGETVYSTKTGESKEIKAPGDYPENTTTIAPLSPYDKWDGEKWVTDTEAQHSAAVDAAEAQRQSLIDAAMASISLIQLKLQAGRKLTQAETTRLNAVLDYIDAVTATDTSTAPDVIWPELPEA
- soluble on expression in E. coli: not soluble

Sequence: MAELISFVVPTQSDKVLLVWDLSTGPPAEALSHSLFTVFSQFGLLYSVRVFPNAAVARPGFYAIIKFYSSRDAQRAQKACDGKPLFQTSPVKVRLGTRHKALQHQAFALNSSRCQELANYYFGFSGWSKRIIKLQELSGLEDAALAVPMQKGSPQFLCAVEVVLPPYGCRSPGVGISEEPLRQLEEGQSSFLMKRKTAQKLAFQAAVSDAFQKLTIVVLESGRIAVEYRPTAEDLDARSEEELQNLIQVSCSSWSQSSQREEECLSDFSLEEEDLKLCDPH
- soluble on expression in E. coli: soluble

Sequence: MSRSGEFCPRCGDEIPEGTDERPELAGAGGQRNSEHVLCDACYFEEFDLVDAPDTIQVRVCSRCGAVHKGNRWVDIGAEDYTDIAVEQVSEALGIHVDAQSVAWQVAPEQLDKNNIRMHAEFSGVIRGTPVTEEVTVPVRISRQTCKRCGKIAGGSFASIVQVRADGRDPTDDERERAEEIAQEYVAAREETGDRNAFITETKSVDDGLDMKISTNQMGLGIAKRITAQLGGSYSDSRRLISEDEDGQELYRMTYAVRLPRYRQGEVIDPEDGDGPVLVRSVQGNLKGVRLATGEDYEASFEAGETPDARRLGFREDGQQTTLVAIEDERAVQVLDPETFESKTVPRPDYLDIDADEVPVLKSHAGLHILPAADADTDELEHHHHHH
- soluble on expression in E. coli: soluble

Sequence: MVDKGVKIKVDYIGKLESGDVFDTSIEEVAKEAGIYAPDREYEPLEFVVGEGQLIQGFEEAVLDMEVGDEKTVKIPAEKAYGNRNEMLIQKIPRDAFKEADFEPEEGMVILAEGIPATITEVTDNEVTLDFNHELAGKDLVFTIKIIEVVE
- soluble on expression in E. coli: soluble

Sequence: MSLQRLNVEFRSEGVALRGWLYLPEARAERPAIVMTHGFSGVKEQYLDRYAEVFAAAGFVVLLYDHPNFGDSDGEPRQEIDPVMQRRGYRDAITWLGAQARVDASRIGIWGTSYSGGHVLEVAALDRRVKCVVAQVPTVSGHASALRRTRAEQLPALLASFDADRQRRFEGLPPALLPAVAASPDEPCAMAGADAHRFFTDSAALAPNWCNRVTLRSAELARENEPGIHIGRISPTPLLMIVADRDLLTPTDLCLEAYQRALPPKRLLMLAGGHFTPYIEHFDATSQAAADWFVRHLGEGGEQPATVVEEGGSHHHHHH
- soluble on expression in E. coli: soluble

Sequence: MDIKNWSVYNKLYVGGGISDDVQTNTSETYDKEKDCWTLDNGHLVPHNYIMYKCEPVKHRYPLEKTQYTNDFLKYLESFIGS
- soluble on expression in E. coli: not soluble
